Background-corrected fluorescence data for 58 sequences are collected here from the supplement of paper PMC9428881.

The nature of this data set: background-corrected fluorescence of 3'-dye-labeled ssDNA relative to brightest sequence (3'-GCGCG) (fraction); higher = brighter dye fluorescence (less quenching). In a few lines:
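Light-directed phosphoramidite synthesis on glass slides produced single-stranded DNA carrying a 3' Cy3 or Cy5 dye next to each of 1024 permuted pentamers. After a 2 h acetonitrile wash at r.t., arrays were scanned at 532 or 635 nm both before and after overnight deprotection in ethylenediamine/ethanol. Every value is the mean of 10 features per array over at least 3 syntheses. Fluorescence had unlabeled-oligo background subtracted and was scaled to the brightest sequence.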

± gives the standard error.

Take “TTTTTTGATGCTCATCATGATTTTTTTTTTTTTTTCAGGC [CGGAC]”: the background-corrected fluorescence was 0.571 ± 0.012 (dye: Cy3 (3' terminal)) and 0.469 ± 0.032 (dye: Cy5 (3' terminal)).
The like results for “TTTTTTGCGCATCATGATCATTTTTTTTTTTTTTTATGCG [GCGTA]” were, in that order, 0.587 ± 0.017 and 0.49 ± 0.035.
For “TTTTTTGCGCATGCTGATGCTTTTTTTTTTTTTTTATACA [ACATA]” the same measures were 0.492 ± 0.031 and 0.372 ± 0.024.
For “TTTTTTGATGCTGAGCAGCATTTTTTTTTTTTTTTCACTT” the same measures were 0.498 ± 0.016 and 0.351 ± 0.022.
Regarding “TTTTTTGATGCTCAGCATGCTTTTTTTTTTTTTTTCAGTA [ATGAC]”, the background-corrected fluorescence came to 0.609 ± 0.021 (dye: Cy3 (3' terminal)) and 0.461 ± 0.022 (dye: Cy5 (3' terminal)).
For “TTTTTTGCGCATCATCAGCATTTTTTTTTTTTTTTATGGT [TGGTA]” the same measures were 0.649 ± 0.027 and 0.561 ± 0.028.
For “TTTTTTGATCAGCAGCATGCTTTTTTTTTTTTTTTCGTTA [ATTGC]” the same measures were 0.561 ± 0.012 and 0.398 ± 0.052.
With “TTTTTTGCTGCTCATGATCATTTTTTTTTTTTTTTAAGCG [GCGAA]”, the background-corrected fluorescence is, setting by setting: (dye: Cy3 (3' terminal)) 0.632 ± 0.033; (dye: Cy5 (3' terminal)) 0.513 ± 0.033.
As for “TTTTTTGCGCATGATGCGCATTTTTTTTTTTTTTTATCAT [TACTA]”, the background-corrected fluorescence reads like this: (dye: Cy3 (3' terminal)) 0.511 ± 0.02; (dye: Cy5 (3' terminal)) 0.408 ± 0.028.
For “TTTTTTGATCAGCATCAGCATTTTTTTTTTTTTTTCGTGT [TGTGC]” the same measures were 0.571 ± 0.022 and 0.466 ± 0.037.
For “TTTTTGCATGATGCTGCGCATTTTTTTTTTTTTTTTCAAT [TAACT]” the same measures were 0.554 ± 0.027 and 0.386 ± 0.019.
The like results for “TTTTTTGATGCTCATGCTGCTTTTTTTTTTTTTTTCAGAA [AAGAC]” were, in that order, 0.609 ± 0.022 and 0.471 ± 0.027.
For the sequence “TTTTTTGATGCGCAGCATCATTTTTTTTTTTTTTTCATTG [GTTAC]”, the background-corrected fluorescence runs as follows: (dye: Cy3 (3' terminal)) 0.561 ± 0.029; (dye: Cy5 (3' terminal)) 0.363 ± 0.021.
The like results for “TTTTTTGATCATGATCATGCTTTTTTTTTTTTTTTCGCGA [AGCGC]” were, in that order, 0.823 ± 0.027 and 0.792 ± 0.034.
The like results for “TTTTTTGATGCTGATGCTCATTTTTTTTTTTTTTTCACAG [GACAC]” were, in that order, 0.481 ± 0.031 and 0.384 ± 0.019.
For “TTTTTTCATCATGCTCATGATTTTTTTTTTTTTTTGGAGC [CGAGG]” the same measures were 0.549 ± 0.026 and 0.439 ± 0.029.
On to “TTTTTTGATGCTGCTGATCATTTTTTTTTTTTTTTCAACG [GCAAC]”, for which the background-corrected fluorescence is, setting by setting: (dye: Cy3 (3' terminal)) 0.535 ± 0.022; (dye: Cy5 (3' terminal)) 0.408 ± 0.039.
“TTTTTTGATCATGCGCATCATTTTTTTTTTTTTTTCGATG [GTAGC]”: the background-corrected fluorescence is, setting by setting: (dye: Cy3 (3' terminal)) 0.552 ± 0.021; (dye: Cy5 (3' terminal)) 0.438 ± 0.024.
For “TTTTTTGCTCAGCATGAGCATTTTTTTTTTTTTTTAGTCT [TCTGA]” the same measures were 0.472 ± 0.018 and 0.368 ± 0.029.
“TTTTTGCATGATGCGCATGCTTTTTTTTTTTTTTTTCATA [ATACT]”: the background-corrected fluorescence runs as follows: (dye: Cy3 (3' terminal)) 0.518 ± 0.019; (dye: Cy5 (3' terminal)) 0.396 ± 0.024.
For “TTTTTGCATCATGAGCATGATTTTTTTTTTTTTTTTGCTC [CTCGT]” the same measures were 0.374 ± 0.037 and 0.296 ± 0.036.
The like results for “TTTTTTGATCATCAGCAGCATTTTTTTTTTTTTTTCGGTT [TTGGC]” were, in that order, 0.545 ± 0.0074 and 0.427 ± 0.024.
For “TTTTTTGAGCAGCATGAGCATTTTTTTTTTTTTTTCTTCT” the same measures were 0.441 ± 0.027 and 0.342 ± 0.027.
Sequence “TTTTTTCATCATGCTCATGCTTTTTTTTTTTTTTTGGAGA [AGAGG]” returned a background-corrected fluorescence (dye: Cy3 (3' terminal)) of 0.726 ± 0.026 and a background-corrected fluorescence (dye: Cy5 (3' terminal)) of 0.594 ± 0.04.
For “TTTTTTGATGCTCAGCATCATTTTTTTTTTTTTTTCAGTG [GTGAC]” the same measures were 0.61 ± 0.026 and 0.463 ± 0.025.
In turn, “TTTTTTGCTGATCAGCATGCTTTTTTTTTTTTTTTACGTA [ATGCA]” came in with a background-corrected fluorescence (dye: Cy3 (3' terminal)) of 0.61 ± 0.016 and a background-corrected fluorescence (dye: Cy5 (3' terminal)) of 0.465 ± 0.024.
The like results for “TTTTTTGCGCATCAGCATGCTTTTTTTTTTTTTTTATGTA” were, in that order, 0.549 ± 0.017 and 0.47 ± 0.039.
With “TTTTTTGATGCTGCTGCGCATTTTTTTTTTTTTTTCAAAT [TAAAC]”, the background-corrected fluorescence reads like this: (dye: Cy3 (3' terminal)) 0.553 ± 0.017; (dye: Cy5 (3' terminal)) 0.41 ± 0.061.
The like results for “TTTTTTCATGATGATCATGCTTTTTTTTTTTTTTTGCCGA [AGCCG]” were, in that order, 0.621 ± 0.024 and 0.547 ± 0.034.
The like results for “TTTTTGCATGCTGCGCATCATTTTTTTTTTTTTTTTAATG [GTAAT]” were, in that order, 0.513 ± 0.02 and 0.363 ± 0.023.
For “TTTTTTGAGCATGCTGCTGATTTTTTTTTTTTTTTCTAAC [CAATC]” the same measures were 0.407 ± 0.026 and 0.316 ± 0.032.
As to “TTTTTTCAGCAGCAGCAGCATTTTTTTTTTTTTTTGTTTT”, the background-corrected fluorescence (dye: Cy3 (3' terminal)) is 0.531 ± 0.019 and the background-corrected fluorescence (dye: Cy5 (3' terminal)) amounted to 0.368 ± 0.021.
Consider “TTTTTGCATCAGCATCATCATTTTTTTTTTTTTTTTGTGG [GGTGT]”, for which the background-corrected fluorescence runs as follows: (dye: Cy3 (3' terminal)) 0.585 ± 0.06; (dye: Cy5 (3' terminal)) 0.511 ± 0.029.
As to “TTTTTTCATGATGATGCTGATTTTTTTTTTTTTTTGCCAC [CACCG]”, the background-corrected fluorescence was 0.393 ± 0.022 (dye: Cy3 (3' terminal)) and 0.299 ± 0.015 (dye: Cy5 (3' terminal)).
With “TTTTTTGCTGCTGATGCGCATTTTTTTTTTTTTTTAACAT [TACAA]”, the background-corrected fluorescence stood at 0.529 ± 0.035 (dye: Cy3 (3' terminal)) and 0.374 ± 0.021 (dye: Cy5 (3' terminal)).
The like results for “TTTTTTGCGCATCATCATCATTTTTTTTTTTTTTTATGGG [GGGTA]” were, in that order, 0.661 ± 0.035 and 0.548 ± 0.037.
As for “TTTTTTGCTGCTGCGCATGCTTTTTTTTTTTTTTTAAATA [ATAAA]”, the background-corrected fluorescence runs as follows: (dye: Cy3 (3' terminal)) 0.564 ± 0.053; (dye: Cy5 (3' terminal)) 0.451 ± 0.031.
The like results for “TTTTTTCATGCTGATCAGCATTTTTTTTTTTTTTTGACGT [TGCAG]” were, in that order, 0.601 ± 0.016 and 0.474 ± 0.028.
For “TTTTTTCATGATGCTGCTCATTTTTTTTTTTTTTTGCAAG [GAACG]” the same measures were 0.503 ± 0.04 and 0.422 ± 0.029.
As to “TTTTTGCATGCTCATGCTGCTTTTTTTTTTTTTTTTAGAA [AAGAT]”, the background-corrected fluorescence runs as follows: (dye: Cy3 (3' terminal)) 0.639 ± 0.018; (dye: Cy5 (3' terminal)) 0.533 ± 0.052.
Consider “TTTTTGCATGCTGCTGCTGATTTTTTTTTTTTTTTTAAAC [CAAAT]”, for which the background-corrected fluorescence worked out at 0.447 ± 0.028 (dye: Cy3 (3' terminal)) and 0.336 ± 0.028 (dye: Cy5 (3' terminal)).
For “TTTTTTCATGATGCGCATGCTTTTTTTTTTTTTTTGCATA [ATACG]” the same measures were 0.574 ± 0.02 and 0.431 ± 0.024.
For “TTTTTTGCTCATGATGAGCATTTTTTTTTTTTTTTAGCCT [TCCGA]” the same measures were 0.481 ± 0.039 and 0.394 ± 0.083.
The like results for “TTTTTTGCTGAGCATGCGCATTTTTTTTTTTTTTTACTAT [TATCA]” were, in that order, 0.531 ± 0.012 and 0.392 ± 0.021.
“TTTTTTCATGCTCATCATCATTTTTTTTTTTTTTTGAGGG [GGGAG]”: the background-corrected fluorescence was 0.759 ± 0.02 (dye: Cy3 (3' terminal)) and 0.553 ± 0.041 (dye: Cy5 (3' terminal)).
On to “TTTTTTGCGCAGCATGAGCATTTTTTTTTTTTTTTATTCT [TCTTA]”, for which the background-corrected fluorescence runs as follows: (dye: Cy3 (3' terminal)) 0.45 ± 0.021; (dye: Cy5 (3' terminal)) 0.326 ± 0.021.
The like results for “TTTTTTGATGCTCATGCTCATTTTTTTTTTTTTTTCAGAG [GAGAC]” were, in that order, 0.595 ± 0.022 and 0.462 ± 0.03.
For “TTTTTGCATCATGATGATCATTTTTTTTTTTTTTTTGCCG [GCCGT]” the same measures were 0.519 ± 0.027 and 0.389 ± 0.029.
For “TTTTTTGATGCTCATCATGCTTTTTTTTTTTTTTTCAGGA [AGGAC]” the same measures were 0.705 ± 0.027 and 0.6 ± 0.034.
In the case of “TTTTTGCAGCAGCATGCTGATTTTTTTTTTTTTTTTTTAC [CATTT]”, the background-corrected fluorescence was 0.391 ± 0.039 (dye: Cy3 (3' terminal)) and 0.292 ± 0.021 (dye: Cy5 (3' terminal)).
The like results for “TTTTTTGCTGCTGATCATGATTTTTTTTTTTTTTTAACGC [CGCAA]” were, in that order, 0.547 ± 0.021 and 0.436 ± 0.057.
For the sequence “TTTTTTCATCAGCAGCATCATTTTTTTTTTTTTTTGGTTG [GTTGG]”, the background-corrected fluorescence is 0.524 ± 0.02 (dye: Cy3 (3' terminal)) and 0.392 ± 0.022 (dye: Cy5 (3' terminal)).
For “TTTTTTGATCATGATGATCATTTTTTTTTTTTTTTCGCCG [GCCGC]” the same measures were 0.647 ± 0.017 and 0.506 ± 0.046.
For “TTTTTTGAGCAGCATCATGATTTTTTTTTTTTTTTCTTGC [CGTTC]” the same measures were 0.481 ± 0.026 and 0.365 ± 0.022.
The like results for “TTTTTTGCTCATGAGCATGCTTTTTTTTTTTTTTTAGCTA [ATCGA]” were, in that order, 0.512 ± 0.0099 and 0.4 ± 0.019.
Turning to “TTTTTGCATGCTGATGCTGCTTTTTTTTTTTTTTTTACAA [AACAT]”, the background-corrected fluorescence by setting is: (dye: Cy3 (3' terminal)) 0.538 ± 0.025; (dye: Cy5 (3' terminal)) 0.433 ± 0.059.
The like results for “TTTTTTCATGCTCATGATGATTTTTTTTTTTTTTTGAGCC [CCGAG]” were, in that order, 0.425 ± 0.012 and 0.312 ± 0.029.
The like results for “TTTTTTCATCATCAGCAGCATTTTTTTTTTTTTTTGGGTT” were, in that order, 0.598 ± 0.011 and 0.489 ± 0.031.
